The values that follow come from article doi:10.1101/2020.06.18.159822.

Where two headings read alike, the source gives them in different places.

In general, stoichiometry N refers to a count of units in the complex or per binding partner. For orientation: Kd means the constant that tells how readily two partners part at equilibrium.

Data set [1] concerns the target HIV-1 BH10 GagΔp6 (HIV-1 BH10). As to the kind of experiment: native MS.
Data set [2] deals with HIV-1 BH10 GagΔp6 (HIV-1 BH10). As to the kind of experiment: native MS. The source holds these as a separate data set.
Data set [3] deals with WT HIV-1 BH10 Gag (HIV-1 BH10). As to the kind of experiment: native MS.
In data set [4] the target is WT HIV-1 BH10 Gag (HIV-1 BH10). The experiment in a line: native MS. The source holds these as a separate data set.
For data set [5], the target named is T1, WT Gag (HIV-1 BH10, UniProt P03347 1-512). As to the kind of experiment: native MS.
Data set [6] addresses T1, WT Gag. As to the kind of experiment: fluorescence anisotropy salt titration. In general terms: Fluorescence polarisation rises when a labelled molecule tumbles more slowly, as on binding a larger partner.

For the molecule HIV-1 BH10 GagΔp6 (domain or fragment), the stoichiometry N in data set [1] and in data set [2] was 2 throughout.

For the molecule WT HIV-1 BH10 Gag (natural protein), the stoichiometry N in data set [3] and in data set [4] was 2 in each case.

B1: TARpolyA RNA (structured_RNA)
RNA: GGGUCUCUCUGGUUAGACCAGAUCUGAGCCUGGGAGCUCUCUGGCUAACUAGGGAACCCACUGCUUAAGCCUCAAUAAAGCUUGCCUUGAGUGCUCAAAGUAGUG
B1: the binding result with WT Gag [5] is listed as “binds”.

B2: Psi RNA-FTSC (structured_RNA)
RNA: GGUCUCUCGACGCAGGACUCGGCUUGCUGGAGACGGCAAGAGGCGAGGGGCGGCGACUGGUGAGUACGCCAAAAAUUUUGACUAGCGGAGGCUAGAAGGAGAGA
Turning to B2, the Kd with WT Gag [6] stood at 77 µM.
